# Results taken from patent US20100009868, “Self-Assembled Combinatorial Encoding Nanoarrays for Multiplexed Biosensing” (The Arizona Board of Regents a body corporate acti ng for …, published 2010).
# Read-outs that look alike come from different tables or passages of the source.
# What was measured:
# [1] = target: T1, BSA (bovine serum albumin) (UniProt P02769 P02769:25-607); test: 6 uM BSA, no color change of array; settings: label: Alexa Fluor 488
# Method: (§1) Desired amount of detection targets were added into 10 μl multiplexed detection solution. Unless elsewhere mentioned, final concentration of detection targets was 0.5 μM for DNA targets, 6 μM for thrombin and 3 mM for ATP. The mixture was thoroughly mixed by vortexing and then incubated at room temperature for 30 min before imaging.
# (§2) Two different aptamer binding targets were used: human α-thrombin and ATP (See Table 1). The DNA sequences of probe 3 and 4 are, in fact, the aptamer sequences for these two targets.
# [2] = target: alpha-thrombin (Homo sapiens, UniProt P00734;P00734 P00734:328-363,P00734:364-622); test: possibly CITED (ref 13); apparent Kd for strand-displacement probe; Table 1 labels of probes 3 and 4 appear swapped, Table 2 and sequence assign probe 3 to thro
# [3] = target: T2, alpha-thrombin (Homo sapiens, UniProt P00734;P00734 P00734:328-363,P00734:364-622)
# [4] = target: T2, alpha-thrombin; test: no color change of array; 6 uM thrombin, 1xTAE-Mg, RT; settings: label: Alexa Fluor 488; partially hybridised to anchor strand on DNA B tile
# Method: as §1, §2
# [5] = target: T1, BSA (bovine serum albumin); test: no significant 3MI fluorescence change on array; settings: label: 3MI at position 7
# [6] = partially hybridised to anchor strand on DNA B tile
# T1 sequence (P02769 25-607, one chain of several): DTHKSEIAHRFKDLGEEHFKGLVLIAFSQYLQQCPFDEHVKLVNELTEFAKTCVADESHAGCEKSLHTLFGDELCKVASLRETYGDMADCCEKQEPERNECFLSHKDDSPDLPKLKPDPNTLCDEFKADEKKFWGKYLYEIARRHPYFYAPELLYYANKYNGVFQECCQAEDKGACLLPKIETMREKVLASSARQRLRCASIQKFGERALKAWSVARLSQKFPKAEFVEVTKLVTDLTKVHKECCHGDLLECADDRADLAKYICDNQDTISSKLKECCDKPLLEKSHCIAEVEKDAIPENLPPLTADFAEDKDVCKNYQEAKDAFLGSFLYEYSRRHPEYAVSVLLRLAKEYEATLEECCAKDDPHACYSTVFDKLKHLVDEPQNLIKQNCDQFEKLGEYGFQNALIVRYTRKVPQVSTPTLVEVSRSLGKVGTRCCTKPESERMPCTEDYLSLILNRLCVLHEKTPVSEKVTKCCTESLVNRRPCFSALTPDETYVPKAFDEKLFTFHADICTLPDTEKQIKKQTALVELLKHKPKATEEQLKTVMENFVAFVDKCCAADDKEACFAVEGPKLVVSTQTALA
binder,measurement,setting,value
CACTGTGGTTGGTGTGGTTGG (ssDNA) [Probe 3 (thrombin aptamer containing)],binding result,[1]; partially hybridised to anchor strand on DNA B tile (8-12 bp),no binding
same,Kd,[2],~400 nM
CGTCTCTACCTGATTACTATTGCATCT (ssDNA) [Probe 1 (SARS probe)],binding result,[1]; [6],no binding
same,binding result,[3],no binding
TTTAACAGCAGTTGAGTTGATACTACTGGCCTAATTCCA (ssDNA) [Probe 2 (HIV probe)],binding result,[1]; [6],no binding
same,binding result,[4],no binding
CACTGACCTGGGGGAGTATTGCGGAGGAAGGT (ssDNA) [Probe 4 (ATP aptamer containing)],binding result,[1]; [6],no binding
"GGTTGGTGTGGTTGG (structured_DNA, dT7 replaced by 3-methylisoxanthopterin (3MI)) [3MI-TBA signaling aptamer on DNA tile array]",binding result,[5],no binding
